# Experimental data as given in PMC5431965.
# Legend:
# [1] = target: HydF V261C mutant (cysteine-less background), spin labeled with MTSSL (Thermotoga neapolitana); test: PELDOR (DEER) pulse EPR; distances between spin labels on the two monomers; protein about 150 uM in deuterated buffer with 33% v/v deuterated glycerol, quickly frozen, Q-band, 50 K; without and with 10 mM GTP
# [2] = target: HydF, wild type recombinant, Thermotoga neapolitana (Thermotoga neapolitana); test: SEC; Superdex 200 GL 10 300 in 25 mM Tris-HCl pH 8.0, 200 mM KCl, 1 mM MgCl2; column calibrated with molecular weight standards
Substance,stoichiometry N [1],stoichiometry N [2]
"HydF V261C mutant (cysteine-less background), spin labeled with MTSSL (natural protein)",2,
"HydF, wild type recombinant, Thermotoga neapolitana (natural protein)",,2
